A short description of series [1]: T cell IFN-γ ELISA after acid stripping and re-expression. The following applies: glycan gained; control: same cells without z-vad-fmk. (ELISA stands for enzyme-linked immunosorbent assay.)
The nature of series [2]: cytosolic fraction SDS-PAGE, anti-flag immunoblot. The following applies: glycan gained; control: untreated (cycloheximide only). Background: A western blot detects proteins with antibodies after separation by electrophoresis.

Substitutions are numbered along the chain they refer to. Numbers in names are those of the source.

B1: tyrosinase: z-vad-fmk, R402Q tyrosinase cells (protein)
parent chain: MLLAVLYCLLWSFQTSAGHFPRACVSSKNLMEKECCPPWSGDRSPCGQLSGRGSCQNILLSNAPLGPQFPFTGVDDRESWPSVFYNRTCQCSGNFMGFNCGNCKFGFWGPNCTERRLLVRRNIFDLSAPEKDKFFAYLTLAKHTISSDYVIPIGTYGQMKNGSTPMFNDINIYDLFVWMHYYVSMDALLGGSEIWRDIDFAHEAPAFLPWHRLFLLRWEQEIQKLTGDENFTIPYWDWRDAEKCDICTDEYMGGQHPTNPNLLSPASFFSSWQIVCSRLEEYNSHQSLCNGTPEGPLRRNPGNHDKSRTPRLPSSADVEFCLSLTQYESGSMDKAANFSFRNTLEGFASPLTGIADASQSSMHNALHIYMNGTMSQVQGSANDPIFLLHHAFVDSIFEQWLQRHRPLQEVYPEANAPIGHNRESYMVPFIPLYRNGDFFISSKDLGYDYSYLQDSDPDSFQDYIKSYLEQASRIWSWLLGAAMVGAVLTALLAGLVSLLCRHKRKQLPEEKQPLLMEKEDYHSLYQSHL
Turning to B1, the “other: MHC class I epitope presentation” value in series [1] is given as “decreases”.

B2: tyrosinase: z-vad-fmk (protein)
parent chain: B1 parent chain with Q402R
As to B2, the degradation_or_half_life result in series [2] is “no change”.

B3: tyrosinase: z-vad-fmk, N371D R402Q tyrosinase cells (protein)
parent chain: B1 parent chain with N371D
As for B3, in series [1], the “other: MHC class I epitope presentation” value is “no change”.

Values taken from publication PMC2859980.
